Measured values taken from patent publication US20230078601A1 (CLEVELAND CLINIC FOUNDATION, published 2023).

Legend:
[1] = biological target: T1, recombinant extracellular domain of human AMHR2 (rhAMHR2-ED), C-terminal hexahistidine-tagged fusion protein (human, UniProt Q16671 18-149); experiment: SPR, Biacore 3000, 25 C; 4D12G1 immobilised by amine coupling, rhAMHR2-ED as analyte, Langmuir 1:1 fit
T1 construct: also called human AMHR2-ED
T1 sequence: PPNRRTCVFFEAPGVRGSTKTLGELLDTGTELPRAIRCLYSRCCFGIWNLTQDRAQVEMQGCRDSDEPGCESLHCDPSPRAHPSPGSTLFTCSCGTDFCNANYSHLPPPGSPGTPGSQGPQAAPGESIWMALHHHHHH
Experimental: Briefly, the 4D12G1 mAb at 300 nM was diluted in sodium acetate at pH 5.0 and covalently immobilized on carboxymethylated dextran over a gold surface using an aqueous solution of N-ethyl-N′-(3-dimethylaminopropyl)carbodiimide (EDC) and N-hydroxysuccinimide (NHS; Sigma-Aldrich). The rhAMHR2-ED receptor analyte at different concentrations (10-1-103 nM) in a running buffer containing 10 mM HEPES at pH 7.4, 150 mM NaCl, 3 mM EDTA, and 0.005% P20 detergent was captured with a […] flow over the immobilized 4D12G1 ligand. Regeneration of flow cells was performed using 10 mM glycine (Sigma-Aldrich) at pH 1.7. All sensorgrams were corrected by subtracting the low signal of the control flow cell and the dissociation curve of the 4D12G1 mAb. The KD values, taking into account affinity and avidity, were calculated using a Langmuir 1:1 fitting model and BIAevaluation 3.2 software (GE Healthcare Bio-Sciences).
An overlapping series of 16-mer peptides spanning the entire 132 amino acid sequence of human AMHR2-ED (FIG. 3A) with moving single amino acid shifts were plated for direct ELISA testing using the 4D12G1 mAb as primary antibody. […]

[2] = biological target: T2, mouse AMHR2 (in lysate of a normal young C57BL/6 female mouse ovary) (mouse, UniProt Q8K592 16-568, limits assumed); experiment: Western blot of mouse ovary lysate
T2 construct: Denatured ovary lysate on a Western blot; also called mouse AMHR2-ED
T2 sequence (looked up): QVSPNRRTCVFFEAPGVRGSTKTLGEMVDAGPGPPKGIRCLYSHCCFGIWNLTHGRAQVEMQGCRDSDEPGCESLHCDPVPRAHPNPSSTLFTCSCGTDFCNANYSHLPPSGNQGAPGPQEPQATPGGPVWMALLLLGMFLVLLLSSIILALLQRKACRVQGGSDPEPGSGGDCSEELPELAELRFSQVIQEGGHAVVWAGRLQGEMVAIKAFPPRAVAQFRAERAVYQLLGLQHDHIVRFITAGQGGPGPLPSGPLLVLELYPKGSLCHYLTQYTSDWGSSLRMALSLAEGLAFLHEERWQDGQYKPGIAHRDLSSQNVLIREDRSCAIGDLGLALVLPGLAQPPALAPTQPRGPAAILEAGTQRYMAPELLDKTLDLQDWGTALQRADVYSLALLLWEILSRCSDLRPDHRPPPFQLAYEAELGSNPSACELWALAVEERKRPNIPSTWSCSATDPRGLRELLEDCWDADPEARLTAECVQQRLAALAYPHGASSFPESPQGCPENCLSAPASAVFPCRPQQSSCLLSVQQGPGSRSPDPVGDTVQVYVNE
Experimental: The suspension was centrifuged to remove debris, the lysates were washed in PBS, and 25 μg of protein from each lysate was loaded into each lane of denaturing SDS-PAGE gels (Bio-Rad). Gels were transferred onto polyvinylidene difluoride (PVDF) membranes (Bio-Rad) and treated with the 4D12G1 mAb at 0.001 μg/ml as primary antibody. In FIG. 2D, a commercially available AMHR2-ED mAb (#sc-377413; Santa Cruz Biotechnology, Dallas, Tex.) at 1.0 μg/ml was used instead of the 4D12G1 mAb as the primary antibody for detecting AMHR2-ED. Western blots of lysates were used to detect capase-3-mediated cleavage of poly (ADP-ribose) polymerase-1 (PARP-1) in AMHR2-OVCAR8 cells treated with increasing concentrations of 4D12G1 mAb (1.0-10 μg/ml) by using a primary rabbit antibody for detection of the intact 116 kDa PARP-1 and its 89 kDa cleaved variant associated with apoptosis (Cell Signaling Technology, Danvers, Mass.). Secondary detection antibodies included treatment with a 1:10,000 dilution of an HRP-conjugated rabbit anti-mouse IgG (MilliporeSigma) or a 1:5,000 dilution of an HRP-conjugated goat anti-rabbit antibody (MilliporeSigma). […]

Kd [1]: 0.119 nM | binding result [2]: binds
B1: 4D12G1 mAb (antibody, IgG1, V domains shown)
VH: DVKLVESGGGLVKLGGSLKLSCAASGFTFSRYFMSWVRQTPEKRLELVAAINSDGGRTYYPDTVKGRFTISRDNAKNTLYLQMSSLKSEDTALYYCTRHIYSYYEDYFDYWGQGTTLTVSS
VL: DVVMTQTPLSLPVSLGDQASISCRSSQSLVHSNGNTYLHWYLQKPGQSPKLLIYKVSKRFSGVPDRFSGSGSGTDFTLKISRVEAEDLGVYFCSQSTHVYTFGGGTKLEIK
notes: also called 4D12G1 IgG1 mAb
